Biological target: Fibronectin (FN) from human plasma (human) (UniProt P02751)
Chain of UniProt P02751 (P02751 32-2477): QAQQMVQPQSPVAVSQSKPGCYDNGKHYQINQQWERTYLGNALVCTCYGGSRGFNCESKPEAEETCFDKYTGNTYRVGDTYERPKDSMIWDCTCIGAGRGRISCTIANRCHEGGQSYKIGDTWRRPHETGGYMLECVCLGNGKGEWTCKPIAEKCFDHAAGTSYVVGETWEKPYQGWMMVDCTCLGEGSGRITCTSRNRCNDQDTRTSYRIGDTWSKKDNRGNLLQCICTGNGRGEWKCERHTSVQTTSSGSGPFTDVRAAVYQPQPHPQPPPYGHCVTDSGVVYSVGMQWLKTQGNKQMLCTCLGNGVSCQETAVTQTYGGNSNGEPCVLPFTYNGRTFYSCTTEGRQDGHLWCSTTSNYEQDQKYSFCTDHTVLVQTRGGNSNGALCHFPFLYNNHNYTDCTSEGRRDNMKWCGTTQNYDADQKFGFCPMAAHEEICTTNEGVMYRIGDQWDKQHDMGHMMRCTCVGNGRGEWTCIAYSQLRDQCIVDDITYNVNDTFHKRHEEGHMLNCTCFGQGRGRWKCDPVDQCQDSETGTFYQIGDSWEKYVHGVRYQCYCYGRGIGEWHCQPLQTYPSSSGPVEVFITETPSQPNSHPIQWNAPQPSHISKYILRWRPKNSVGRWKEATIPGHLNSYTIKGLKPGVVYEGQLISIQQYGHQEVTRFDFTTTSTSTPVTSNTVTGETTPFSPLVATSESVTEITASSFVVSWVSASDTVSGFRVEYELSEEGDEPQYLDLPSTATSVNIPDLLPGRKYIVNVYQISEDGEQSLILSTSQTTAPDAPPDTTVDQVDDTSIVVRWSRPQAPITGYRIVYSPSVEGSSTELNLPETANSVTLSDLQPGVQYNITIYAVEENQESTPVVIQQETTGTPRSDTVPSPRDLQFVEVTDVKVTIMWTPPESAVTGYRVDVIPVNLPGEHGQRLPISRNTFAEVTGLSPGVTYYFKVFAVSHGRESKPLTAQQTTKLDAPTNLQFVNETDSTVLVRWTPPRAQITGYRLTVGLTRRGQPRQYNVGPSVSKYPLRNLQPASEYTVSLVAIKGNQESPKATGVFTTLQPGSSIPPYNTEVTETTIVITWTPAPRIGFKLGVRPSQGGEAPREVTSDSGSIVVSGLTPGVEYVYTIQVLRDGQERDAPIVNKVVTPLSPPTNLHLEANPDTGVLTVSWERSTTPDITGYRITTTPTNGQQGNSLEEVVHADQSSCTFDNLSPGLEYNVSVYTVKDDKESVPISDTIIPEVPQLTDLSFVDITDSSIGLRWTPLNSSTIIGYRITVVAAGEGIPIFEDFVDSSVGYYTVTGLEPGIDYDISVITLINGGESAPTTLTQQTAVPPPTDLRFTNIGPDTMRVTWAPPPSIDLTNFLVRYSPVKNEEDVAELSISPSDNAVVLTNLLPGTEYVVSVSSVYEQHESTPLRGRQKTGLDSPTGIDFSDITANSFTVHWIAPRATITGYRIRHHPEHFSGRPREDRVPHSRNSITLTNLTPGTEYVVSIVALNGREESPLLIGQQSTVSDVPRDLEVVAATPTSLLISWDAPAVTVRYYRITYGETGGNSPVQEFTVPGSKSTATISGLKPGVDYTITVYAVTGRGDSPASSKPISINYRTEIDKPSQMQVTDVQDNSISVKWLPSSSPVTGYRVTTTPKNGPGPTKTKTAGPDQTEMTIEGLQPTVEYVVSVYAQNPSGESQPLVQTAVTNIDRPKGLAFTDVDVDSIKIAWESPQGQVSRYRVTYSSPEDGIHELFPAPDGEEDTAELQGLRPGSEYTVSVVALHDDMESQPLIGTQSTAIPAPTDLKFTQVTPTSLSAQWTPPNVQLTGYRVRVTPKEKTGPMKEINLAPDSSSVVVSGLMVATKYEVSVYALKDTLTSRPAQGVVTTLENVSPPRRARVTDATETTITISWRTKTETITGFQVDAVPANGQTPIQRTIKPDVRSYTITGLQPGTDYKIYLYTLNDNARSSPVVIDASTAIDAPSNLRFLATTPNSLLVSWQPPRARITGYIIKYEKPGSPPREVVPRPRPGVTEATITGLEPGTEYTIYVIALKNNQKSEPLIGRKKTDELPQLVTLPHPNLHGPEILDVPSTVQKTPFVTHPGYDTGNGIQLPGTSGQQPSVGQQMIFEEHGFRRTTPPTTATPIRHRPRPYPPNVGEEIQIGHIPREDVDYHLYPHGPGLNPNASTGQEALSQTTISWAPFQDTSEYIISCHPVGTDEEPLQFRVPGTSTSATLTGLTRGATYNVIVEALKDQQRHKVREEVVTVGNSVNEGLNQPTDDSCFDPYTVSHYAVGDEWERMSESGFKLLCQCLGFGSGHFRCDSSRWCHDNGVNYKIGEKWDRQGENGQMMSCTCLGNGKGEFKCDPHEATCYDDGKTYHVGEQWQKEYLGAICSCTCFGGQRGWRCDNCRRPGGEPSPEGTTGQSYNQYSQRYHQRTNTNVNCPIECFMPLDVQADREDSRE

“Recombinant human αVβ3 integrin (from UniProt P06756;P05106) (receptor)” showed a fold more bead attachment on FN-coated GO than on FN-coated RGO of 5 fold.

Source: publication doi:10.1101/2020.02.11.944678
